Source: US20250154240A1, “ANTI-HUMAN CXCL1 ANTIBODY” (CHIOME BIOSCIENCE INC., priority 2022, published 2025)

T1: human CXCL2 (Homo sapiens, UniProt P19875)
T1 sequence (P19875 35-107): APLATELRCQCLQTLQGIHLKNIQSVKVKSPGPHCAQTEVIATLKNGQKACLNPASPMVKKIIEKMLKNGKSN


Legend:
human CXCL2 = molecular target: T1, human CXCL2; assay: Binding to human CXCL2
CyCXCL1 [1] = assay: Ca2+ Flux assay, CyCXCL1 neutralizing activity in AequoScreen/CXCR2 cells; type: cell-based, cynomolgus monkey; conditions: CyCXCL1 100 ng per ml; antibody 10 μg per ml
Procedure: For evaluation of neutralizing activity against CyCXCL1, CyCXCL1-induced changes in intracellular calcium ions in AequoScrenn/CXCR2 cells were measured as the luminescence intensity of aequorin.
AequoScrenn/CXCR2 cells were adjusted in the same manner as shown in [2-2] above. After CyCXCL1 was added to 96-well plates in an amount of 100 ng per ml, purified antibodies were each added in an amount of 10 μg per ml, and the plates were allowed to stand at room temperature for 30 minutes. To these plates, the AequoScree/CXCR2 cell suspension was added in a volume of 50 μL per well, immediately followed by measurement of luminescence intensity.
An antibody found to completely suppress CyCXCL1-induced luminescence from aequorin was determined to have cross-reactivity and indicated with “o” while an antibody found to not completely suppress luminescence from aequorin was indicated with “x” in Table A above.
Target sequence in this assay (as listed by the source): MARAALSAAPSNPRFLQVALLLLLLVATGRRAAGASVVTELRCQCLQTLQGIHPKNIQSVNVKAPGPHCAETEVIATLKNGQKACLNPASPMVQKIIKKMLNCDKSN
Target sequence in this assay (P25025 whole entry partner): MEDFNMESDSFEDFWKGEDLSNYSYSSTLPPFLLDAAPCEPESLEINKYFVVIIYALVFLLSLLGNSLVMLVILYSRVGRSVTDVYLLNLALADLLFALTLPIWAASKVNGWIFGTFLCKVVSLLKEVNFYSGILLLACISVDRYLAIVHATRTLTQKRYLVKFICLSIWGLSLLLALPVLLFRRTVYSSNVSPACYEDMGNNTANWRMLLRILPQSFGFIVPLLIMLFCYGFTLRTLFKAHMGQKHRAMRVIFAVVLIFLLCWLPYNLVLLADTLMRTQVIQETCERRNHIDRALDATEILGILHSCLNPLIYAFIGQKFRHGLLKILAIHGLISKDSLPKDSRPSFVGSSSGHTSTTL

CyCXCL1 [2] = assay: CyCXCL1 binding activity ELISA; parameters: species or system cynomolgus monkey; conditions: absorbance to CyCXCL1 relative to absorbance to HuCXCL1
Procedure: Binding activity to cynomolgus monkey CXCL1 (CyCXCL1) was evaluated.
The same procedure as shown in [1-1] above was repeated to prepare a CyCXCL1 protein (antigen), except that the amino acid sequence of a HuCXCL1 protein was replaced with the amino acid sequence of a CyCXCL1 protein (Uniprot registration number: QUEAC3; SEQ ID NO: 82).
The evaluation of binding activity to CyCXCL1 was accomplished by ELISA assay. Absorbance was calculated in the same manner as shown in [2-1] above to evaluate antigen-binding activity, except that the protein immobilized on the plates was changed from a HuCXCL1 protein to a CyCXCL1 protein. An antibody whose absorbance to CyCXCL1 was 80% or more of its absorbance to HuCXCL1 was determined to have cross-reactivity and indicated with “o” while an antibody whose absorbance to CyCXCL1 was less than 80% of its absorbance to HuCXCL1 was indicated with “x” in Table A above.
Target sequence in this assay (as listed by the source): as the sequence (as listed by the source) above

[3] = system: OCUM-12 gastric cancer cell line; assay: Antitumor activity test, model with OCUM-12 orthotopic transplantation (prevention model); type: in vivo, mouse; conditions: for Antitumor activity (tumor growth, tumor size): 20 mg/kg intraperitoneally twice a week from the day following transplantation
Procedure: A model with OCUM-12 orthotopic transplantation was prepared to evaluate the above 4 types of candidate antibodies for their in vivo CXCR2 migration inhibitory activity and antitumor activity in a xenograft model with OCUM-12 orthotopic transplantation.
For use as mice, female nude mice (BALB/cAJcl-nu/nu) at 5 to 6 weeks of age were purchased from CLEA Japan, Inc., Japan. For use as human cancer cells, a gastric cancer cell line, OCUM-12, was provided by University Public Corporation Osaka, Japan.
OCUM-12 cells were cultured in D-MED medium (FUJIFILM Wako Pure Chemical Corporation, Japan) supplemented with 10% fetal bovine serum (FBS; Sigma-Aldrich Corporation) and 1/100 volumes of a penicillin-streptomycin mixture (Nacalai Tesque, Inc., Japan). The cells to be transplanted were detached with 0.25% trypsin/0.02% EDTA (Thermo Fisher Scientific) and washed with PBS, and 4× 10^5 cells per mouse were transplanted into the gastric wall of each mouse.
On the day following the above transplantation, the mice were randomized into groups (8 or 6 mice per group) and intraperitoneally administered with PBS as a control and with 4 types of candidate antibodies (1A-7H10, 4A-2F7, 5A-5E11 and 028-8-12) and 3 types of non-candidate antibodies (1A-3C6, 1A-2H3 and 4A-5B11) at a dose of 20 mg/kg. In addition, mouse IgG1 as a control was intraperitoneally administered at a dose of 20 mg/kg, and 3 types of antibodies (5A-5E11, 1A-4H10 and 4A-7G7) among the candidate antibodies were intraperitoneally administered at a dose of 20 mg/kg. The administration of these antibodies was then continued with a frequency of twice a week until the completion of the test. After 3 weeks had passed from the transplantation, the mice were sacrificed, and the short- and long-axis diameters of tumors formed in their gastric walls were each measured with a caliper. The tumor size was calculated according to the following: 1/2 short-axis diameter (mm)×1/2 long-axis diameter (mm)×3.14.
Navarixin is among small molecular compounds that act on CXCR2 and inhibit CXCL1-CXCR2 signaling. […] Then, using a model with OCUM-12 orthotopic transplantation, the migration inhibition of CXCR2-expressing cells and antitumor activity were evaluated in vivo for Navarixin. As a vehicle, ultrapure water containing 20% 2-hydroxypropyl-β-cyclodextrin (FUJIFILM Wako Pure Chemical Corporation, Japan) was used. Navarixin (MedChemExpress) was dissolved in ultrapure water containing 20% 2-hydroxypropyl-β-cyclodextrin, and orally administered at a dose of 100 mg/kg/day in a schedule of once a day for 5 consecutive days, followed by a 2-day withdrawal.
The humanized antibodies were evaluated for their in vivo antitumor activity and CXCR2 migration inhibitory activity in a xenograft model with OCUM-12 orthotopic transplantation. Procedures for the evaluation are shown below.
For use as mice, female nude mice (BALB/cAJcl-nu/nu) at 5 to 6 weeks of age were purchased from CLEA Japan, Inc., Japan. For use as human cancer cells, gastric cancer cell line, OCUM-12, was provided by Osaka Metropolitan University, Japan.
OCUM-12 cells were cultured in D-MED medium (FUJIFILM Wako Pure Chemical Corporation, Japan) supplemented with 10% fetal bovine serum (hereinafter abbreviated as FBS; Sigma-Aldrich Corporation) and 1/100 volumes of a penicillin-streptomycin mixture (Nacalai Tesque, Inc., Japan). The cells to be transplanted were detached with 0.25% trypsin/0.02% EDTA (Thermo Fisher Scientific) and washed with PBS, and 4×10^5 cells per mouse were transplanted into the gastric wall of each mouse. On the day following the transplantation, the mice were randomized into groups (8 mice per group) and intraperitoneally administered with test antibodies at a dose of 400 μg/head. PBS was intraperitoneally administered in a volume of 200 μL with a frequency of twice a week for 3 weeks, starting from the day following the transplantation. […]

Molecule	Binding to human CXCL2 (human CXCL2)	CyCXCL1 neutralizing activity Ca^2+ Flux assay (CyCXCL1 [1])	Binding activity to CyCXCL1 ELISA (CyCXCL1 [2])	Antitumor activity (tumor growth, tumor size) ([3]; 3 weeks, compared to PBS)	Antitumor activity (tumor area) ([3]; 400 μg/head intraperitoneally twice a week, 3 weeks, compared to hIgG1 antibody)	Dose significantly suppressing the tumor area ([3]; prevention model, compared to PBS)
5A-5E11: mouse monoclonal anti-HuCXCL1 antibody clone; VH SEQ ID NO: 17, VL SEQ ID NO: 21 (antibody, listed as Mus musculus, V domains shown) VH: QVQLQQSGAELVRPGSSVKISCKASGYAFSDYWMNWVKQRPGQGLEWIGQIYPGDGDTNYNGKFKGKGTLTADKSSSTAYMQLNSLTSEDSAVYFCARERDYDVAMDYWGQGTSVTVSS VL: DIQMTQSPSSLSASLGGKVTITCKASQDINKYIAWFQHKPGKGPRLVIHYTSILQPGIPSRFSGVGSGRDYSFSIRNLEPEDIATYYCLQYDNLPWTFGGGTKLEIK	also bind	∘	∘	significantly suppress tumor growth		
1A-7H10: mouse monoclonal anti-HuCXCL1 antibody clone; VH SEQ ID NO: 1, VL SEQ ID NO: 5 (antibody, listed as Mus musculus, V domains shown) VH: QVQLKESGPVLVAPSQSLSITCSVSGFSSTTYGVHWVRQPPGQGLEWLGVIWAGGSTNYNSALMSRLSISKDNSKSQVFLKMNSLQTDDTAMYYCATQYHYPFAYWGQGTLVTVSA VL: NIVMTQSPKSMSMSVGERVTLSCKASENVGIYVSWYQQKPEQSPKLMIYGASNRNTGVPDRFTGSGSATDFTLTISSVQAEDLADYYCGQSYSYPLTFGAGTKLELK	also bind	∘	∘	significantly suppress tumor growth		
028-8-12: human antibody against CXCL1 from the human ADLib technique; VH SEQ ID NO: 25, VL SEQ ID NO: 29 (antibody, listed as Gallus gallus, V domains shown) VH: EVQLLESGGGLVQPGGSLRLSCAASGFTFSELSMSWVRQAPGKGLEWVSAISGSGGSTYYADSVKGRFTISRDNSKNTLYLQMNSLRAEDTAVYYCAREGGRLEPYYYYYAMDVWGQGTPVTVSS VL: DIQMTQSPSSLSASVGDRVTITCRASQSISDNLHWYQQKPGKAPKLLIYDASNLESGVPSRFSGSGSGTDFTLTINSLQPEDFATYYCQQYYSTPLTFGQGTKLEIK	also bind	∘	∘	significantly suppress tumor growth		
Hu5A-5E11: humanized antibody VH1/VL1; VH SEQ ID NO: 76, VL SEQ ID NO: 78 (antibody, V domains shown) VH: QVQLVQSGAEVKKPGSSVKVSCKASGYAFSDYWMNWVRQAPGQGLEWIGQIYPGSGDTNYNAKFKGKGTITADKSTSTAYMELSSLRSEDTAVYYCARERDYDVAMDYWGQGTTVTVSS VL: DIQMTQSPSSLSASVGDRVTITCKASQDINKYIAWFQQKPGKAPKLVIHYTSILQPGVPSRFSGSGSGTDYTFTISSLQPEDIATYYCLQYDNLPWTFGGGTKVEIK					significantly suppress an increase in the tumor area	≥ 60 μg/head
4A-2F7: mouse monoclonal anti-HuCXCL1 antibody clone; VH SEQ ID NO: 9, VL SEQ ID NO: 13 (antibody, listed as Mus musculus, V domains shown) VH: QVTLKESGPGILKPSQTLSLTCSFSGFSLSTSGMGVDWIRQPSGKGLEWLAHIWWDDDKYYNPSLKSQLTISKDTSRNQVFLKITSVDTADTATYYCARSYGYDMDYYAMDYWGQGTSVTVSS VL: DIQMTQSPSSLSASLGERVSLTCRASQEISGYLSWLQQKPDGTIKRLIYAASTLDSGVPKRFSGSRSGSDYSLTISSLESEDFADYYCLQYASYPPWTFGGGTKLEIK	also bind	∘	∘	significantly suppress tumor growth		
